Tests used:
Assay in all cases: co-IP with agarose-bound AvFc from A549 whole-cell lysate, mass spectrometry
Mucin-5B (human) = Mucin-5B (human) (UniProt Q9HC84)
[1] = target: Tropomyosin alpha-3 chain (human) (UniProt P06753)
[2] = target: Laminin subunit beta-1 (human) (UniProt P07942)
[3] = target: Solute carrier family 2, facilitated glucose transporter member 1 (human) (UniProt P11166)
Integrin beta-5 (human) = Integrin beta-5 (human) (UniProt P18084)
Erlin-2 (human) = Erlin-2 (human) (UniProt O94905)
Sequence of UniProt O94905 (O94905 whole entry): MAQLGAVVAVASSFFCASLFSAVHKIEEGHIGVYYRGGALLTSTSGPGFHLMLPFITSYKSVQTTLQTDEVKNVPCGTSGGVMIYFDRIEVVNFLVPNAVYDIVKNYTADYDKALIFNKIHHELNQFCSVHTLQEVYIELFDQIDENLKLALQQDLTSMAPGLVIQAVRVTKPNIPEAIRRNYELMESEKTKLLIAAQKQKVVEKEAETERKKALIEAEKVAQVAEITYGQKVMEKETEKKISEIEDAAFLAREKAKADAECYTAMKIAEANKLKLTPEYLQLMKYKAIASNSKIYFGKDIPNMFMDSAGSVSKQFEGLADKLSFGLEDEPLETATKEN

[4] = target: Tetratricopeptide repeat protein 17 (human) (UniProt Q96AE7)
[5] = target: Solute carrier family 12 member 7 (human) (UniProt Q9Y666)
Integrin alpha-2 (human) = Integrin alpha-2 (human) (UniProt P17301)
[6] = target: Transferrin receptor protein 1 (human) (UniProt P02786)
[7] = target: Laminin subunit beta-2 (human) (UniProt P55268)
[8] = target: Insulin-like growth factor 1 receptor (human) (UniProt P08069)
[9] = target: Adhesion G protein-coupled receptor L2 (human) (UniProt O95490)
Polycystin-2 (human) = Polycystin-2 (human) (UniProt Q13563)
Sequence of UniProt Q13563 (Q13563 other isoform, or with tags, fused parts or gaps limits assumed): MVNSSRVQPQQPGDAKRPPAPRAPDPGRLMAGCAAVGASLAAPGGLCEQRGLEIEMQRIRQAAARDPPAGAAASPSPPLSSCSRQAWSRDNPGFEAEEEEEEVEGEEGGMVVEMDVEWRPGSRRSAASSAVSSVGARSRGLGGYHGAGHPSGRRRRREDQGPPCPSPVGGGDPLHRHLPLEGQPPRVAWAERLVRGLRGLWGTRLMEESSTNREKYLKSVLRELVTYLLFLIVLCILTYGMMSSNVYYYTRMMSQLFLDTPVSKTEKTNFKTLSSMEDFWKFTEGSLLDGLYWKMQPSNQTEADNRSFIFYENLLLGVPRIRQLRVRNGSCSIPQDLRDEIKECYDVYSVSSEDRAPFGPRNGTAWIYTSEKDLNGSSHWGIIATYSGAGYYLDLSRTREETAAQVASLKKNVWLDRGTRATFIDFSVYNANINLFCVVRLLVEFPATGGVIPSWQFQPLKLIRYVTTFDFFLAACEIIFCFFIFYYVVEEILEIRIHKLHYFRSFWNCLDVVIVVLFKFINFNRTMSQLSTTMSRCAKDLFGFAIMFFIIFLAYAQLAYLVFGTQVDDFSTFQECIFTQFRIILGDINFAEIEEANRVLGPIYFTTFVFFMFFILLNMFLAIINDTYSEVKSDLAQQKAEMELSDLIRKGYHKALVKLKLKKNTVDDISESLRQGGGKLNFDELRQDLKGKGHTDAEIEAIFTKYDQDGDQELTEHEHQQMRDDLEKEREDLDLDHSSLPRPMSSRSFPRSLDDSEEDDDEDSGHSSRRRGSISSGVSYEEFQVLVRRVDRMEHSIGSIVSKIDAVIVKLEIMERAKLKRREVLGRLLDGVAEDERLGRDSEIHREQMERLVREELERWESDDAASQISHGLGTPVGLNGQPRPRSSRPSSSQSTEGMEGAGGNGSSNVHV

[10] = target: Transmembrane and TPR repeat-containing protein 3 (human) (UniProt Q6ZXV5)
Integrin alpha-1 (human) = Integrin alpha-1 (human) (UniProt P56199)
Sequence of UniProt P56199 (P56199 29-1179 limits assumed): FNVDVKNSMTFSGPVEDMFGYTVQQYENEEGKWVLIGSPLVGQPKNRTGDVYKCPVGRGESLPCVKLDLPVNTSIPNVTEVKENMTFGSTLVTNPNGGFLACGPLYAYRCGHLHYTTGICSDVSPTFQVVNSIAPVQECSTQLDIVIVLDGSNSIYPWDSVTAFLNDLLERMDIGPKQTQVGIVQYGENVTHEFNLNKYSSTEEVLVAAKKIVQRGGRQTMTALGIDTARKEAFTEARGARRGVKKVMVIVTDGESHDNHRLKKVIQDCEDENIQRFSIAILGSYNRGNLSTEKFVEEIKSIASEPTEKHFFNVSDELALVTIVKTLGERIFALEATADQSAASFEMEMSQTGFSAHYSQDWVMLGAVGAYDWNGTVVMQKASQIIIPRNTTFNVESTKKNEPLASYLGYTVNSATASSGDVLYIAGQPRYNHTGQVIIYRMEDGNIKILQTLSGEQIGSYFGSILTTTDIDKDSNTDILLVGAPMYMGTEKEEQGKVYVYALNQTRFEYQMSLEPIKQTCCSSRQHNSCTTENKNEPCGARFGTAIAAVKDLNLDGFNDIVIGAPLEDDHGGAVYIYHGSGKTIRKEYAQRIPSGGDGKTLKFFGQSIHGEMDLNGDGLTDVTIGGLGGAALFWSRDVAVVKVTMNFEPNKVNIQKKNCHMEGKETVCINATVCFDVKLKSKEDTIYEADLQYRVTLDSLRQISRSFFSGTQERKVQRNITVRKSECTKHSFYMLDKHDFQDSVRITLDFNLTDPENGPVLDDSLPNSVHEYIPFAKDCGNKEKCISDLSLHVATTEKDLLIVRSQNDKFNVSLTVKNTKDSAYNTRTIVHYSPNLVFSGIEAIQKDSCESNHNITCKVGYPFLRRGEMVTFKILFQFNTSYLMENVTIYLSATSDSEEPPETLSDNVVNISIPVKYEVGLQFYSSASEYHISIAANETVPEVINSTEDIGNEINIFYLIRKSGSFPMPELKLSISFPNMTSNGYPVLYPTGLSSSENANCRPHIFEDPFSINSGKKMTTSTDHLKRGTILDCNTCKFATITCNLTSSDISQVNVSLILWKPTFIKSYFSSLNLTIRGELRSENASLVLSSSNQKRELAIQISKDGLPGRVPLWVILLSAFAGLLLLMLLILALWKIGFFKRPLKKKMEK

[11] = target: Protocadherin Fat 1 (human) (UniProt Q14517)
[12] = target: Sortilin-related receptor (human) (UniProt Q92673)
[13] = target: Contactin-associated protein-like 3 (human) (UniProt Q9BZ76)
Sequence of UniProt Q9BZ76 (Q9BZ76 26-1288 limits assumed): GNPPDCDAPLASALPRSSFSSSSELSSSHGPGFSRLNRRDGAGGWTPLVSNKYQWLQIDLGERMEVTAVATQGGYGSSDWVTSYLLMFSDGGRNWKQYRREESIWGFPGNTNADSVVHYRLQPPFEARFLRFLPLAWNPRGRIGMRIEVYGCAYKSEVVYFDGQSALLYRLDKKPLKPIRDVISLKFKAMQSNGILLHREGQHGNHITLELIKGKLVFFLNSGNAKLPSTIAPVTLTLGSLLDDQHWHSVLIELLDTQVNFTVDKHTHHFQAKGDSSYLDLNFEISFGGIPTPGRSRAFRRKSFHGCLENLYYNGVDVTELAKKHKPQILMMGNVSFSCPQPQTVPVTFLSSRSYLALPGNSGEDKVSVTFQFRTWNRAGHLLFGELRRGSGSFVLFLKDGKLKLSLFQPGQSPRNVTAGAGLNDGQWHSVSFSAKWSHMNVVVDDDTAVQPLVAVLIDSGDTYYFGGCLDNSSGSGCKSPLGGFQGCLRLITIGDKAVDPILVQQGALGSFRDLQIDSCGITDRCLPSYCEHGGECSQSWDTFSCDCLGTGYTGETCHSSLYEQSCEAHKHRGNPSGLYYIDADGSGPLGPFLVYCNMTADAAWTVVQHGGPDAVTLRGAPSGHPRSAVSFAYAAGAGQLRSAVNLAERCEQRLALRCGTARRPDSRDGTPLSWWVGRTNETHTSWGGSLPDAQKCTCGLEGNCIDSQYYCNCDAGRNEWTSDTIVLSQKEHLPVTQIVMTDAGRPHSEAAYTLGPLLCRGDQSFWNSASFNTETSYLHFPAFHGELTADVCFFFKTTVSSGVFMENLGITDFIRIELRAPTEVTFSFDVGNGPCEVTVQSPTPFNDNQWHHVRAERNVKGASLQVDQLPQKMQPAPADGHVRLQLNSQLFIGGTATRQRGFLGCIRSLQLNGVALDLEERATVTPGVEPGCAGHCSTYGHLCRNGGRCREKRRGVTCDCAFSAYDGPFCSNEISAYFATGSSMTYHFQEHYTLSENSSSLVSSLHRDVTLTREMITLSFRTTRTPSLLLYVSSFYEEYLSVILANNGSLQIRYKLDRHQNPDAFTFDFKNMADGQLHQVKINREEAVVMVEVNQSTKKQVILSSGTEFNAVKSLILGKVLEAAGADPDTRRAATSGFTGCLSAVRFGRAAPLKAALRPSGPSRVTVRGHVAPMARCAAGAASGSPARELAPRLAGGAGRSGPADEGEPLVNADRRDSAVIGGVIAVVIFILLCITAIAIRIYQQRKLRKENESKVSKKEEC

Integrin alpha-5 (human) = Integrin alpha-5 (human) (UniProt P08648)
Sequence of UniProt P08648 (P08648 42-1049 limits assumed): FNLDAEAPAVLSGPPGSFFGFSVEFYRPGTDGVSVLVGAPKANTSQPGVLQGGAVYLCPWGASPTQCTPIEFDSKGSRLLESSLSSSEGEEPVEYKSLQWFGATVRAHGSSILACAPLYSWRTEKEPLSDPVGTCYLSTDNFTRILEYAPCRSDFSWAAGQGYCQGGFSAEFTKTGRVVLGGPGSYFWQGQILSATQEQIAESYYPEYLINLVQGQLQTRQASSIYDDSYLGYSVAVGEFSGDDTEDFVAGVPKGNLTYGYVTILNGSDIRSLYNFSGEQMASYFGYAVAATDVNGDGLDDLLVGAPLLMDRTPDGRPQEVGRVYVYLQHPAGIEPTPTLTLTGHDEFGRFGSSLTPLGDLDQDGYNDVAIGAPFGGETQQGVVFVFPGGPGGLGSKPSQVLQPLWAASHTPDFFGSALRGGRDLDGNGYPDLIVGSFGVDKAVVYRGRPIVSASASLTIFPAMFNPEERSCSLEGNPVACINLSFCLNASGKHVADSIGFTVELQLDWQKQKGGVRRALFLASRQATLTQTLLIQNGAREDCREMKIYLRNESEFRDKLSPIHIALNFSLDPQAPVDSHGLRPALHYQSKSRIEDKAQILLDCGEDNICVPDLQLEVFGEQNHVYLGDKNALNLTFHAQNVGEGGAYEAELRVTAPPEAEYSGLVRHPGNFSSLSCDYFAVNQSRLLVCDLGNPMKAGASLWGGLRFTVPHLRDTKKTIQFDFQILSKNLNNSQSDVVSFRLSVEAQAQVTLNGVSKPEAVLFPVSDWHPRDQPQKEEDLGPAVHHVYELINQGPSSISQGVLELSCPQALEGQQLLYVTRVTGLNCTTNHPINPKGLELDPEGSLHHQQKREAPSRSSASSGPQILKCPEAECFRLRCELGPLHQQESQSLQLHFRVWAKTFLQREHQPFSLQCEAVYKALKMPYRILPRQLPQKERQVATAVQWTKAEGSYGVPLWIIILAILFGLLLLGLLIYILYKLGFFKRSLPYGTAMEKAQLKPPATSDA

[14] = target: Tetratricopeptide repeat protein 13 (human) (UniProt Q8NBP0)
[15] = target: Isoform 6 of Myoferlin (human) (UniProt Q9NZM1)
[16] = target: Scavenger receptor class B member 1 (human) (UniProt Q8WTV0)
[17] = target: Metal transporter CNNM4 (human) (UniProt Q6P4Q7)
Exportin-1 (human) = Exportin-1 (human) (UniProt O14980)
Integrin alpha-V (human) = Integrin alpha-V (human) (UniProt P06756)
[18] = target: Laminin subunit alpha-5 (human) (UniProt O15230)

Sequence of UniProt P06753 (P06753 other isoform, or with tags, fused parts or gaps limits assumed): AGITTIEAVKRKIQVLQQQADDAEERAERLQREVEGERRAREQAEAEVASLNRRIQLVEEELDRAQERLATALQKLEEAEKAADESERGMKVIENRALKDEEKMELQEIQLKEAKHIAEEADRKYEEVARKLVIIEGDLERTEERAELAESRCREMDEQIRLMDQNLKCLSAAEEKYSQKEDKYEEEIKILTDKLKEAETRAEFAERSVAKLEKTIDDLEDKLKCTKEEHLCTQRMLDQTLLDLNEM

## Avaren-Fc (AvFc) (Fc fusion)
Mucin-5B (human)
  Percentage of Total Spectra (%): 0.14%
[1]
  Percentage of Total Spectra (%): 0.07%
[2]
  Percentage of Total Spectra (%): 0.41%
[3]
  Percentage of Total Spectra (%): 0.007%
Integrin beta-5 (human)
  Percentage of Total Spectra (%): 0.11%
Erlin-2 (human)
  Percentage of Total Spectra (%): 0.15%
[4]
  Percentage of Total Spectra (%): 0.13%
[5]
  Percentage of Total Spectra (%): 0.021%
Integrin alpha-2 (human)
  Percentage of Total Spectra (%): 0.11%
[6]
  Percentage of Total Spectra (%): 0.16%
[7]
  Percentage of Total Spectra (%): 0.056%
[8]
  Percentage of Total Spectra (%): 0.091%
[9]
  Percentage of Total Spectra (%): 0.091%
Polycystin-2 (human)
  Percentage of Total Spectra (%): 0.17%
[10]
  Percentage of Total Spectra (%): 0.11%
Integrin alpha-1 (human)
  Percentage of Total Spectra (%): 0.021%
[11]
  Percentage of Total Spectra (%): 0.12%
[12]
  Percentage of Total Spectra (%): 0.12%
[13]
  Percentage of Total Spectra (%): 0.11%
Integrin alpha-5 (human)
  Percentage of Total Spectra (%): 0.035%
[14]
  Percentage of Total Spectra (%): 0.13%
[15]
  Percentage of Total Spectra (%): 0.17%
[16]
  Percentage of Total Spectra (%): 0.056%
[17]
  Percentage of Total Spectra (%): 0.091%
Exportin-1 (human)
  Percentage of Total Spectra (%): 0.056%
Integrin alpha-V (human)
  Percentage of Total Spectra (%): 0.15%
[18]
  Percentage of Total Spectra (%): 0.34%
